# From publication PMC6701479
# Tests used:
# [1] = target: H3K9me3 containing chromatin fibers (12 × 601 arrays with recombinant human histone octamer) (human); assay: single-molecule TIRF (smTIRF); chromatin fibers immobilised; 3 nM Atto 532-labeled HP1α with 400 nM KAP1; 50 mM Hepes, 130 mM KCl, 10% glycerol; 22°C
# [2] = target: H3K9me3 containing chromatin fibers (12 × 601 arrays with recombinant human histone octamer) (human); assay: single-molecule TIRF (smTIRF); chromatin fibers immobilised; 3 nM Atto 532-labeled HP1α with 200 nM KAP1; 50 mM Hepes, 130 mM KCl, 10% glycerol; 22°C
# [3] = target: H3K9me3 containing chromatin fibers (12 × 601 arrays with recombinant human histone octamer) (human); assay: single-molecule TIRF (smTIRF); chromatin fibers immobilised; 3 nM Atto 532-labeled HP1α with 100 nM KAP1; 50 mM Hepes, 130 mM KCl, 10% glycerol; 22°C
# [4] = target: H3K9me3 containing chromatin fibers (12 × 601 arrays with recombinant human histone octamer) (human); assay: single-molecule TIRF (smTIRF); chromatin fibers immobilised; 3 nM Atto 532-labeled HP1α with 50 nM KAP1; 50 mM Hepes, 130 mM KCl, 10% glycerol; 22°C
# Atto 532–labeled HP1α, sequence (P45973 whole entry): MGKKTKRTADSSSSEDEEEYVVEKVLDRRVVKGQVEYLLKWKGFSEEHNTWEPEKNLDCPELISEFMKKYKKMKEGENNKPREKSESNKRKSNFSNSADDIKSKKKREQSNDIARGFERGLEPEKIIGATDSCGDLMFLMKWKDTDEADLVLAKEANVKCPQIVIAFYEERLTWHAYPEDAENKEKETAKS
substance,measurement,setting,value
Atto 532–labeled HP1α (from UniProt P45973 1-191) (natural protein),kon,[1],770000 M⁻¹ s⁻¹
same,"τ (off,1)",[1],0.23 s
same,"τ (off,2)",[1],5.03 s
same,kon,[2],1.43e+06 M⁻¹ s⁻¹
same,"τ (off,1)",[2],0.27 s
same,"τ (off,2)",[2],5.47 s
same,kon,[3],1.42e+06 M⁻¹ s⁻¹
same,"τ (off,1)",[3],0.28 s
same,"τ (off,2)",[3],5.79 s
same,kon,[4],1.03e+06 M⁻¹ s⁻¹
same,"τ (off,1)",[4],0.29 s
same,"τ (off,2)",[4],3.64 s
